Test results reported in the DeepSol protein solubility set.

Assay: soluble on expression in E. coli; label from the status in PepcDB or PDB records

**Q.** With “MAHHHHHHMPPQRQCSHCEKEKAVLKRPRNGKLLCQRCFFNLFEAEVHETIMKEKLFKPGDIVACGASGGKDSTVLIHLMKLLNEQHEYGIQLLLLSIDEGIAGYRDDSLKTVHRNAEVYNLPLRVLSYKELYGWTMDEVVKVTGLRSSCTYCGVFRRQALDRGAAMLGATKVVTGHNADDLAETILMNILRGDLPRLSRCTSAITSGESLLPRVKPLKYAYEKEIVLYAHFKKLDYFTTECTYSKEAFRSEARTLLKNIEILQPRCILDTIRTGEQLRVKEQECATENPPSACTRCGYVTSQSLCRACVLLQGLNMNGPAVCVREQPQPQQQQQQQNVEVEGQ” as the sequence, how does the “soluble on expression in E. coli” value read?
**A.** not soluble

**Q.** With “MAHHHHHHMPTEADLEKIRRERAARYQQLSEAEKPRVEPCPHCHELPYKKEVCPETGIFHNLERHTIVGGAVVQSNIVRSSELMEAIDRSRIRWVESRTQMVRADAVSLNLFQSFVRQLDWSLQRYGILYGKYDASLNLIEVHAIYEPEQHGDAYTFHYLPDKRLPNVDRIAALLGLRRVGAVCTHPPRDIEEMVLSSREILLCAREQSRFGDECVLLTMSPSLTTGRIECQAWQTSPQAVHFYRLGVLREKSDDYSDLESAKYVHSSIPLEVAQQETDEKGHPRVVTMAPSHDIDTRWFTSYVAVQQFESPVVRNLFMRVSRPGMEPPAMINLRNYMEDPKRRKVPLIEKLADFHVLIFLAESVFSVADDMPVIIGAITKQRPAEDAMHYGEVLKLYLEQ” as the sequence, how does the “soluble on expression in E. coli” value read?
**A.** soluble

**Q.** Which “soluble on expression in E. coli” value does the source give for “MAHHHHHHMPTEAHGWAALSAKSKLEPFAFQRRDVGPDDVVIAIAYCGVCHSDVHQARDEWDGSTFPMVPGHEIVGHVTKVGSEVTKYKAGDRVGVGCMVDSCMKCRQCERGLEQYCVNGASFTYNSTQQDKKTPTFGGYSDHVVVREHFVVSIPDNLDLCAAAPLLCAGVTTFSPLRYWGVKKGTRVGVVGLGGLGHMAVKLANAMGAEVTVFTRSSNKVEEAENLGAHHVVNTNNEQEMNSIQGTLDVIVDTVGMSHDLRPYMMTLDIDGKLALVGMPEHAHPPLDPRRIIASRQCVGGSNIAGMPETQELLNFCGEHNITATVEKIGIEYINEAYERILASDVRYRFVIDMASLKKE” here?
**A.** soluble

**Q.** With “MAHHHHHHMQRPTTARYRGRRESSAASRKLAKKPHSLMDELPPCPPSPYKWKQHRQHDGHHISVTAAFIRGRRNMRVGAAAISAIAASPFPVDGATKAAKSSPAFPMRALVVAGTHDSDAVEGNNDDEAIFELFFREAQLHYHISAEENMRNHLLAGEEVAFTNLMIEALQARAELLAGDEAAELVIRDAQKRAQERQAMMKEIEKTVALRLHDERMAQLLAMEFEALLPAHGAGCERILREEAADLGEVFRWHKENRPLGAGCFIEAPVEDSRLTDARRGTGAAKFLESRLALAKGSRRASCARSSRVYLAQLLQKGTSSRCSAAALGPLAVAAGEAPASLLDGTLPVMDEALFQEEGRARLQAAKDQRYLALRGLRAVSDIRQAAAAAREKVLAEEAMCWMQIARLEVDGIYAAQEATRERKKREASADAATTHRAAQKKEVKERLLRQRGRPVPEPDNSAGGDARVQPRISGKSTEEGAQPPKDQAAITEAGALEQPSPRSSSSTVPDNSPLCGALAEGASTTAEANVDAVDELAYLRFVTGEITDPDACKQLSALVSSEVDEEVEKAV” as the sequence, how does the “soluble on expression in E. coli” value read?
**A.** soluble

**Q.** With “MAHHHHHHMRFLKTLFSLNCLASVGFYKKFACKNLFFENSFIRKDLHTYFIDKRKYFHLNKKDICTNTIIIPFYKDNYSYIFYDDKEEGIVVDPADYNIINDISKKENIKIKHVLCTHKHSDHNNGNQYYYEKNINVYGIKEYDNKYINQDISNLTHFQINNFKINIFLSNFHSKNQVSYLIENDNNKSKKNIFFTGDFLFISGIGKNFEQDNEDLYNSINKLKLLDKQNIYIFCGHEYTLDNLKFALTVDSTNKNLLSFYDHVVNSNKNYPTVPTLLEHEYLYNPFLRCDQNDVRKSIDLYAKKKNIKIQQESDYIVILRLMKDNFKAS” as the sequence, how does the “soluble on expression in E. coli” value read?
**A.** not soluble

**Q.** Which “soluble on expression in E. coli” value does the source give for “MAHHHHHHMRGWTAIRSPQLPTLHHRTVVEHTRPQKKKAKKKHGGRVRLCVWRCRCLPALAAKKTKQEGKKCVLRPTSPRRTPTRHGSLSAPFVAAPPHACSRRGAQGRRHERVGGCASGAVGRETHGTPHRKSAEETIKRGKSRKKKKTSIVIAPKSKKEGMWGVRELKRTN” here?
**A.** soluble

**Q.** For “MAHHHHHHMRKEEMNRNFQNASCKEDNYIKAWLKQTENPEFYKNLNDLDDQSYTNEFVKVVDFNNFNSNFINNMMEEPFGDEFSKQKKRKAYSLFYSNEIGPNNEENYDLKNIYTSFDDSDVKYLKSLDKTPSGNMKDRVKGRYKDEHMSIKKLKRENICNENNEPIFPNNIMMDNSPYYKFRHSNKKPSYGSESTNEFFNNYDFETPIKILSSKKKSYDFKNRKDNSTNTTKENSSRENVSSNNSETKRTINFSNKTDDFNDIPFNSDNEYISSPEYMDHEQNTKYINKKQREVNFLGQKLEYKVVGNVINCSKNHPQFTLF”, which “soluble on expression in E. coli” value is on record?
**A.** not soluble

**Q.** Which “soluble on expression in E. coli” value does the source give for “MAHHHHHHMRNSFFPMLCEKQSTPELEAMPLYLPDTVVLQLHRHDGEAEFADYMDANSLTFVALGDAERPALCGIDATAQLHYEGAQRTLVSAAGIVSGIRRRRLRVPFGMSELSELLRRAYNTEKGNRNNSLTGSTETVLLTHLFSDAVWAEESFHCLSTTRRVGNILGSTGIGSATRDLAVERWRLDQDIMELRDELMIARTVYDYRHCGYESNRSISGMEEEGMKRVNAIQSNREEERKWQLSVFCERAKHEAEKMIKELEQRGGATLDELQKTLEAKKRESSALQADRENRIWEYEHTLEKIRTRKQDEESASERLRQAMQQLEQELSLRQSAIETREQQLEMVQLDGARGREAIMRERHSIEAVSPAEAVDPSD” here?
**A.** not soluble

**Q.** For “MAHHHHHHMRPTCVCAVRAVRMYVPMRVAATGGATPSAASPAGDNASTSSEVRAARRITEAVLSARAKHKLQHRQPSPPTPVPPSVRAKAKAPRSPASDIEEGVVKDTVTVEVQTAARLALSYGKSAFMTHLVHQHDDAHQRPGTVSASEWDQPMVSDAGEPEASVMTASSETCAVLPLRARTPTIPRAAAGTPGLQMAIDKWWRDLTDEARVRWITSTPQGRRALQHATKLAKFRNVSCGQGRSSNSGAHVVPSMESMLTKYKNTLAQPRLPRAAALAPSPKESILRMKLQDEKGASVSPSSKPTTVSSALAGMMHAASENNANRRLLRDRADAVRREEQRKLWHQALVQFLGGASAFTFVHDVKDLQQPRTEAEQAVKREPGAQSGGGAGRATTVAPNTPAATATGNATPEEMADDGAPVAFSDGLLDMCEGLGIRSPRRAYVLSRVLPEVDAANASEGPPLSLAEVQDLAKKCSTEYDELRDDAMRTARETGSASAEDAVRAFEREQLALAVARVQKKLVMFQENLPLLKRCVNVLSK”, which “soluble on expression in E. coli” value is on record?
**A.** not soluble

**Q.** For “MAHHHHHHMRPYKRVLIKLSGGALADQTGNSFNSKRLEHIANEILSIVDLGIEVSIVIGGGNIFRGHLAEEWGIDRVEADNIGTLGTIINSLMLRGVLTSKTNKEVRVMTSIPFNAVAEPYIRLRAVHHLDNGYIVIFGGGNGQPFVTTDYPSVQRAIEMNSDAILVAKQGVDGVFTSDPKHNKSAKMYRKLNYNDVVRQNIQVMDQAALLLARDYNLPAHVFNFDEPGVMRRICLGEHVGTLINDDASLLVHEK”, which “soluble on expression in E. coli” value is on record?
**A.** soluble

**Q.** For “MAHHHHHHMRSPASEGDCGVRLRVSWREGKQRALTDELDAKHQSDPYETLQTSDRKVFVSNTAAGAGRLLTDPQVHADDKGFSTYLRERLLVRVLPEGQKCVCGADASNEHVHTCTRLQQNPRTTRHEMISMTFANGLRLCGFQCGMEPRLTEASRRRPDILIVGLDTYAITDVTVTYAGRVTAYVSEESMEEADPLRAARDRLTQKRQKYRHWALANGLDFEPFVMLTNGAIHPAIRRWLRRILGARVLAYAGAQWVAERQ”, which “soluble on expression in E. coli” value is on record?
**A.** soluble

**Q.** For “MAHHHHHHMRTFSRTARITSSAACVGRFEHQGVSRDAVLARWSLQVVKPNAMKTGGLIGKGMKFASPLGPSGWATRNSGTGSTVLDVNWDLRERMDYYVHYSVPSTWTVVEHVSDNSVAIQSKPPVCDSPGAEGPTVHGFSLNCFAYKQKVKEPDCEKLLSLFLHRFDASVSNSLAVLSKASGRGNGVICGTAKPEQDISEVLANRLECAVAEITFTPAVGEPLAHGLCRAFYNSNRRFHYVVVVAVPEDEFTLSKDLLTHALLAVVESRVEAAPKGT”, which “soluble on expression in E. coli” value is on record?
**A.** soluble
